From US20040146519A1

Target: HLA-A*2401 (human)
Assay: inhibition of 125I probe peptide binding to purified HLA

relative binding ratio	Substance
0.001	CEA peptide, position 118, 8 amino acids
0.0002	CEA peptide, position 248, 10 amino acids
0.0009	CEA peptide, position 356, 8 amino acids

Continued, substance first:

Substance	relative binding ratio
CEA peptide, position 27, 10 amino acids	0.03
CEA peptide, position 42, 11 amino acids	-0.0005
CEA peptide, position 94, 8 amino acids	0.0003
CEA peptide, position 137, 8 amino acids	0.0006
CEA peptide, position 390, 10 amino acids	0.0002
CEA peptide, position 448, 8 amino acids	0.0005
